Four molecules from patent US20250197499A1 (STEALTH IO, published 2025) can be followed below.

The target of experiment [1] is T1, Recombinant human PD-L1-His tag (ACROBiosystems, #PD1-H5229) (human, UniProt Q9NZQ7 19-238).
T1 construct: Bought protein; also called sPD-L1; human PD-L1-His tag protein; not shown: His tag
The experiment in a line: Octet RED96e; PD-L1-His loaded at 10 µg/ml on HIS1K sensor; sample 55,6 nM. On the procedure:
(§1) FIG. 3a is a graph of Octet binding studies on sPD-L1. Recombinant human PD-L1-His tag (ACROBiosystems, #PD1-H5229) was loaded to His-sensor (HIS1K (Anti-Penta-His)) at 10 μg/ml and the binding of each construct was evaluated by Octet RED96e.
(§2) FIG. 3c is a graph depicting the KD values of anti-CD28/sPD-1 constructs on human PD-L1-His tag protein by Octet RED96e. The equilibrium dissociation constant (KD) is calculated as the ratio koff/kₒₙ (with koff:dissociation rates, and kₒₙ:association rates).
(§3) Anti-CD28/sPD-1 antibody fusion constructs were assessed for their ability to bind PD-1 ligands, PD-L1 and PD-L2 by Octet RED96e. Recombinant human PD-L1-His tag (ACROBiosystems, #PD1-H5229) or recombinant human PD-L2-His tag (ACROBiosystems, #PD2-H5220) were loaded to His-sensor (HIS1 K (Anti-Penta-His)) at 10 μg/ml. […] FIG. 3c is a summary of affinity (measured as Kd, M) for each construct on human PD-L1. […] FIG. 4c is a summary of affinity (measured as Kd, M) for each construct on human PD-L2.

The target in experiment [2] is T2, Recombinant human PD-L2-His tag (ACROBiosystems, #PD2-H5220) (human, UniProt Q9BQ51 20-219).
T2 construct: Bought protein; also called sPD-L2; human PD-L2-His tag protein; not shown: His tag
T2 sequence (looked up): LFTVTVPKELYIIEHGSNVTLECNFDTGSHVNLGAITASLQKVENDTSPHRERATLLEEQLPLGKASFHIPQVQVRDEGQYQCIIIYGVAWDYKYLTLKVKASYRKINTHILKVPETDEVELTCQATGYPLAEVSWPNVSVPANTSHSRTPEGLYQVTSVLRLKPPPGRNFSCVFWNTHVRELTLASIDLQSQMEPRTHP
The experiment in a line: Octet RED96e; PD-L2-His loaded at 10 µg/ml on HIS1K sensor; sample 55,6 nM. The procedure: (§4) FIG. 4a is a graph of Octet binding studies on sPD-L2. Recombinant human PD-L2-His tag (ACROBiosystems, #PD2-H5220) was loaded to His-sensor (HIS1 K (Anti-Penta-His)) at 10 μg/ml and the binding of each construct was evaluated by Octet RED96e.
(§5) FIG. 4c is a graph depicting the KD values of anti-CD28/sPD-1 constructs on human PD-L2-His tag protein by Octet RED96e. The equilibrium dissociation constant (KD) is calculated as the ratio koff/kₒₙ (with koff:dissociation rates, and kₒₙ:association rates).
as §3
On the technique in general: In BLI a coated tip is dipped into the sample, and binding shifts an interference pattern.

The target in experiment [3] is T1, Recombinant human PD-L1-His tag …. As to the kind of experiment: Octet RED96e; PD-L1-His loaded at 10 µg/ml on HIS1K sensor; sample 277,8 nM. On the procedure: as §1, §2, §3
For experiment [4] the target is unchanged. As to the kind of experiment: Octet RED96e, PD-L1-His on HIS1K sensor. The procedure: as §1, §2, §3
For experiment [5], the target named is T2, Recombinant human PD-L2-His tag …. The experiment in a line: Octet RED96e, PD-L2-His on HIS1K sensor. On the procedure: as §4, §5, §3
For experiment [6] the target is unchanged. As to the kind of experiment: Octet RED96e; PD-L2-His loaded at 10 µg/ml on HIS1K sensor; sample 277,8 nM. The procedure: as §4, §5, §3
The target in experiment [7] is T1, Recombinant human PD-L1-His tag …. The experiment in a line: Octet RED96e; PD-L1-His loaded at 10 µg/ml on HIS1K sensor; sample 66,7 nM; negative control, response about zero, round fit values. On the procedure:
as §1, §2, §3

The target in experiment [8] is T2, Recombinant human PD-L2-His tag …. The experiment in a line: Octet RED96e; PD-L2-His loaded at 10 µg/ml on HIS1K sensor; sample 66,7 nM; negative control, response about zero, round fit values. On the procedure: as §4, §5, §3
For experiment [9] the target is unchanged. As to the kind of experiment: Octet RED96e; PD-L2-His loaded at 10 µg/ml on HIS1K sensor; sample 588,2 nM. The procedure:
as §4, §5, §3

Experiment [10] shares this target. The experiment in a line: Octet RED96e; PD-L2-His loaded at 10 µg/ml on HIS1K sensor; sample 117,6 nM. The procedure:
as §4, §5, §3

Experiment [11] addresses T3, Recombinant human sCD28 Fc-fusion protein (PeproTech, #310-34) (human, UniProt P10747 19-152).
T3 construct: Bought protein; also called soluble CD28; not shown: Fc part of the bought fusion; not described
The experiment in a line: Octet RED96e; sCD28 Fc-fusion loaded at 2,5 µg/ml on protA sensor; sample 117,6 nM; control without CD28-binding Fab. The procedure:
(§6) FIG. 5a is a graph of Octet binding studies on sCD28. Recombinant human sCD28 Fc-fusion protein (PeproTech, #310-34) was loaded to protA sensor at 2.5 μg/ml and the binding of each construct was evaluated by Octet RED96e.
(§7) FIG. 5c is a graph depicting the KD values of anti-CD28/sPD-1 constructs on human sCD28 Fc-fusion protein by Octet RED96e. The equilibrium dissociation constant (KD) is calculated as the ratio koff/kₒₙ (with koff:dissociation rates, and kₒₙ:association rates).
(§8) Anti-CD28/sPD-1 antibody fusion constructs were assessed for their ability to bind CD28 by Octet RED96e. Recombinant human sCD28 Fc-fusion protein (PeproTech, #310-34) was loaded to protA sensor at 2.5 μg/ml. […] FIG. 5c is a summary of affinity (measured as Kd, M) for each construct on human CD28.

For experiment [12], the target named is T1, Recombinant human PD-L1-His tag …. As to the kind of experiment: Octet RED96e; PD-L1-His loaded at 10 µg/ml on HIS1K sensor; sample 588,2 nM. On the procedure:
as §1, §2, §3

The target of experiment [13] is T3, Recombinant human sCD28 Fc-fusion …. As to the kind of experiment: Octet RED96e; sCD28 Fc-fusion loaded at 2,5 µg/ml on protA sensor; sample 588,2 nM; control without CD28-binding Fab. The procedure:
as §6, §7, §8

The target of experiment [14] is T1, Recombinant human PD-L1-His tag …. The experiment in a line: Octet RED96e; PD-L1-His loaded at 10 µg/ml on HIS1K sensor; sample 117,6 nM. On the procedure: as §1, §2, §3

Broadly, the Kd is the concentration at which binding is half-saturated. As usually defined, the koff is the first-order rate constant of dissociation. A word on the kon: it is a measure of how fast the partners come together.

B1: bivalent anti-CD28/sPD-1 wt (bispecific antibody, human IgG1, kappa)
light: DIELTQSPASLAVSLGQRATISCRASESVEYYVTSLMQWYQQKPGQPPKLLIFAASNVESGVPARFSGSGSGTNFSLNIHPVDEDDVAMYFCQQSRKVPYTFGGGTKLEIKRTVAAPSVFIFPPSDEQLKSGTASVVCLLNNFYPREAKVQWKVDNALQSGNSQESVTEQDSKDSTYSLSSTLTLSKADYEKHKVYACEVTHQGLSSPVTKSFNRGEC
heavy: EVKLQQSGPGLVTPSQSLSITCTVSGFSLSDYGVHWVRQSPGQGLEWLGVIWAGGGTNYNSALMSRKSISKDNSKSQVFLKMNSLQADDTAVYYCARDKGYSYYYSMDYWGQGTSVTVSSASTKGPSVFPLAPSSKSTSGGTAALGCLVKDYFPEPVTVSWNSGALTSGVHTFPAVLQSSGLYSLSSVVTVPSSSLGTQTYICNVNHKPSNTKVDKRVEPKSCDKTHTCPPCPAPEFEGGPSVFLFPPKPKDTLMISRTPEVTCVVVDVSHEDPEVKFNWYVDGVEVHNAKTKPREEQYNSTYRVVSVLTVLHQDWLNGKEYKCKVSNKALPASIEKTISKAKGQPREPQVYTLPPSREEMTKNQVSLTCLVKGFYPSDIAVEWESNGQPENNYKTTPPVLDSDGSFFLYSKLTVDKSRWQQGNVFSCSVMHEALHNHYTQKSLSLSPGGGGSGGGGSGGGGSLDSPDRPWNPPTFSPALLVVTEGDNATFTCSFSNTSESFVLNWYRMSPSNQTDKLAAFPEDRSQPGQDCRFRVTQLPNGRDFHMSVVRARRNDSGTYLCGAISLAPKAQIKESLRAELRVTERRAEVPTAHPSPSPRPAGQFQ
notes: Two Fabs of clone 9.3 against CD28, two wild-type sPD-1 fragments; also called Bivalent anti-CD28/sPD-1 Wild type structure; bispecific protein complex A:B-C-X:D-C'-Y
Regarding B1, the Kd is 21.7 nM in [1]; 7.73 nM in experiment [2]; 37.5 nM in experiment [3]; roughly 10 nM in experiment [4]; roughly 10 nM in [5]; 18.1 nM in experiment [6]. For the same molecule, the off-rate (koff) in [1] turned out to be 0.0133 s⁻¹; in experiment [2], 0.00268 s⁻¹; in experiment [3], 0.0159 s⁻¹; in experiment [6], 0.00314 s⁻¹. Also, the kon turned out to be 614000 M⁻¹ s⁻¹ in [1], 347000 M⁻¹ s⁻¹ in [2], 423000 M⁻¹ s⁻¹ in experiment [3] and 174000 M⁻¹ s⁻¹ in experiment [6].

B2: bivalent anti-CD28/sPD-1 mut (bispecific antibody, human IgG1, kappa)
light: DIELTQSPASLAVSLGQRATISCRASESVEYYVTSLMQWYQQKPGQPPKLLIFAASNVESGVPARFSGSGSGTNFSLNIHPVDEDDVAMYFCQQSRKVPYTFGGGTKLEIKRTVAAPSVFIFPPSDEQLKSGTASVVCLLNNFYPREAKVQWKVDNALQSGNSQESVTEQDSKDSTYSLSSTLTLSKADYEKHKVYACEVTHQGLSSPVTKSFNRGEC
heavy: EVKLQQSGPGLVTPSQSLSITCTVSGFSLSDYGVHWVRQSPGQGLEWLGVIWAGGGTNYNSALMSRKSISKDNSKSQVFLKMNSLQADDTAVYYCARDKGYSYYYSMDYWGQGTSVTVSSASTKGPSVFPLAPSSKSTSGGTAALGCLVKDYFPEPVTVSWNSGALTSGVHTFPAVLQSSGLYSLSSVVTVPSSSLGTQTYICNVNHKPSNTKVDKRVEPKSCDKTHTCPPCPAPEFEGGPSVFLFPPKPKDTLMISRTPEVTCVVVDVSHEDPEVKFNWYVDGVEVHNAKTKPREEQYNSTYRVVSVLTVLHQDWLNGKEYKCKVSNKALPASIEKTISKAKGQPREPQVYTLPPSREEMTKNQVSLTCLVKGFYPSDIAVEWESNGQPENNYKTTPPVLDSDGSFFLYSKLTVDKSRWQQGNVFSCSVMHEALHNHYTQKSLSLSPGGGGSGGGGSGGGGSLDSPDRPWNPPTFSPALLVVTEGDNATFTCSFSNTSESFVLNWYRMSPSNQTDKLAAFPEDRSQPGQDCRFRVTQLPNGRDFHMSVVRARRNDSGTYLCSAISLAPYIQIKESLRAELRVTERRAEVPTAHPSPSPRPAGQFQ
notes: The sPD-1 fragments carry G124S, K131Y and A132I; also called Bi Mut; Bivalent anti-CD28/sPD-1 Mutated structure
For B2, the Kd in [1] came to 1.21 nM; in [2], 0.774 nM; in [3], 1.65 nM; in [6] it was 0.883 nM. Besides, the koff in experiment [1] was determined as 0.000698 s⁻¹; in experiment [2], 0.0003 s⁻¹; in [3], 0.00055 s⁻¹; in experiment [6], 0.000153 s⁻¹. The kon in experiment [1] turned out to be 578000 M⁻¹ s⁻¹; in experiment [2], 387000 M⁻¹ s⁻¹; in experiment [3], 334000 M⁻¹ s⁻¹; in [6] it was 174000 M⁻¹ s⁻¹.

B3: Monoclonal anti-CD28 (9.3) mAb (GeneTex, #GTX14664) (antibody, V domains shown)
VH: EVKLQQSGPGLVTPSQSLSITCTVSGFSLSDYGVHWVRQSPGQGLEWLGVIWAGGGTNYNSALMSRKSISKDNSKSQVFLKMNSLQADDTAVYYCARDKGYSYYYSMDYWGQGTSVTVSS
VL: DIELTQSPASLAVSLGQRATISCRASESVEYYVTSLMQWYQQKPGQPPKLLIFAASNVESGVPARFSGSGSGTNFSLNIHPVDEDDVAMYFCQQSRKVPYTFGGGTKLEIK
notes: Bought 9.3 mAb without sPD-1 fusion; also called monoclonal antibody 9.3
In the case of B3, in experiment [7], the Kd was 100 nM, the koff turned out to be 0.001 s⁻¹ and the kon turned out to be 10000 M⁻¹ s⁻¹. For the same molecule, in [8], the equilibrium dissociation constant (Kd) was determined as 100 nM, the dissociation rate constant (koff) was found to be 0.001 s⁻¹ and the kon stood at 10000 M⁻¹ s⁻¹.

B4: nonvalent (or dummy) Fc/sPD-1 mut (Fc fusion)
chain: DKTHTCPPCPAPEFEGGPSVFLFPPKPKDTLMISRTPEVTCVVVDVSHEDPEVKFNWYVDGVEVHNAKTKPREEQYNSTYRVVSVLTVLHQDWLNGKEYKCKVSNKALPASIEKTISKAKGQPREPQVYTLPPSREEMTKNQVSLTCLVKGFYPSDIAVEWESNGQPENNYKTTPPVLDSDGSFFLYSKLTVDKSRWQQGNVFSCSVMHEALHNHYTQKSLSLSPGGGGSGGGGSGGGGSLDSPDRPWNPPTFSPALLVVTEGDNATFTCSFSNTSESFVLNWYRMSPSNQTDKLAAFPEDRSQPGQDCRFRVTQLPNGRDFHMSVVRARRNDSGTYLCSAISLAPYIQIKESLRAELRVTERRAEVPTAHPSPSPRPAGQFQ
notes: also called Fc/sPD-1 mutated; Fc/sPD-1 mutant construct
Turning to B4, the equilibrium dissociation constant (Kd) in experiment [9] was determined as 0.0118 nM; in [10] it was 1.56 nM; in experiment [11], 2950 nM; in [12], 6.29 pM; in experiment [13], 17.8 nM; in [14], 2.24 nM. Besides, the koff in experiment [9] was 5.99e-07 s⁻¹; in [10], 0.000461 s⁻¹; in experiment [11], 0.00204 s⁻¹; in experiment [12], 6.93e-07 s⁻¹; in experiment [13], 0.000107 s⁻¹; in experiment [14] it was 0.00132 s⁻¹. In addition, the on-rate constant (kon) is 50700 M⁻¹ s⁻¹ in experiment [9]; 295000 M⁻¹ s⁻¹ in [10]; 692 M⁻¹ s⁻¹ in [11]; 110000 M⁻¹ s⁻¹ in experiment [12]; 6000 M⁻¹ s⁻¹ in [13]; 588000 M⁻¹ s⁻¹ in experiment [14].
